Target: the molecule itself
Test: non-reducing SDS-PAGE

B1: Con-ikot-ikot toxin (natural protein)
chain: SGPADCCRMKECCTDRVNECLQRYSGREDKFVSFCYQEATVTCGSFNEIVGCCYGYQMCMIRVVKPNSLSGAHEACKTVSCGNPCA
notes: also called CII; CII toxin
stoichiometry N: 2

Source: paper PMC9195068, “The action of Con-ikot-ikot toxin on single AMPA-type glutamate receptors” (The Journal of General Physiology, 2022)
